Values quoted from earlier work as cited in PMC13200438 (Journal of Nanobiotechnology, 2026).

Conditions: oral semaglutide (Rybelsus)

Q: For semaglutide, which “oral (absolute) bioavailability” value is on record?
A: The value was < 2%.
